Test results published in patent US20230279406A1.
One block for each binder: values may come before it.

Tests used:
Assay in all cases: cell-based or functional assay
[1] = biological target: CD176 PV1-tandem CaffVHH-L1-iCre-271C-NLS-BGHpA
[2] = biological target: T1, CD376 PV1-RfxCas13d-566C-NLS-BGHpA
T1 sequence: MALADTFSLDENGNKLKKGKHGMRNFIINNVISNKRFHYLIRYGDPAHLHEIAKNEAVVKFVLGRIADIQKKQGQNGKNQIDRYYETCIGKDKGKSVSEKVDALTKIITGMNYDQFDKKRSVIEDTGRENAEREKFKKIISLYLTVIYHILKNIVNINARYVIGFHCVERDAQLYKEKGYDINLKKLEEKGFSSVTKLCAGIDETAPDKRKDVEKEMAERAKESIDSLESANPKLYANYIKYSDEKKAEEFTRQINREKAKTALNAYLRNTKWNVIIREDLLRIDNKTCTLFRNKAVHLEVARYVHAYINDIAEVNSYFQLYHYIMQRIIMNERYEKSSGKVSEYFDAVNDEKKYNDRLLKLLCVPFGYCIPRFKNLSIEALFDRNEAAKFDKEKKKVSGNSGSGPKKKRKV

[3] = biological target: T2, CD380 PV1-RfxCas13d-656C-NLS-BGHpA
T2 sequence: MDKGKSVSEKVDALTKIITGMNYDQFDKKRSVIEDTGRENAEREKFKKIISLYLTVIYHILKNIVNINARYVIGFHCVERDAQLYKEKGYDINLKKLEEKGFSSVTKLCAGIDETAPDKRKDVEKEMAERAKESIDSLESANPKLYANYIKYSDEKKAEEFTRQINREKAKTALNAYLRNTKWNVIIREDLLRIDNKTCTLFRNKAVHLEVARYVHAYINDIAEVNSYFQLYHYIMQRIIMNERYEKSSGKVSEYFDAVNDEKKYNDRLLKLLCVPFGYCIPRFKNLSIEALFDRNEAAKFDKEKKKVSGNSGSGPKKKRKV

Sequence of CD176 PV1-tandem CaffVHH-L1-iCre-271C-NLS-BGHpA (chain, as listed by the source): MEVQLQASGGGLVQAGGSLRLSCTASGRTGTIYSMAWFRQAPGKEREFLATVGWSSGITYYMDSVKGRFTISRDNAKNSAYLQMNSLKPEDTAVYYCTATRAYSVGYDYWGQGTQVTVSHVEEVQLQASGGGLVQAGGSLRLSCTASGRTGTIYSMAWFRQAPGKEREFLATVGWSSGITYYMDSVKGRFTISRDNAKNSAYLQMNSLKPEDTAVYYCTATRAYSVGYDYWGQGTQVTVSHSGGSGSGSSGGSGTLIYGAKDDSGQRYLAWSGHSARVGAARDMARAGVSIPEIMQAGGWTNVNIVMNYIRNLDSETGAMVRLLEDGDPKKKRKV

recombination upon caffeine induction, tandem against single CaffVHH split Cre 270/271 [1]: < 13 fold
B1: CD175 PV1-iCre-N270-L1-tandem CaffVHH-NLS-BGHpA (protein)
chain: MSNLLTVHQNLPALPVDATSDEVRKNLMDMFRDRQAFSEHTWKMLLSVCRSWAAWCKLNNRKWFPAEPEDVRDYLLYLQARGLAVKTIQQHLGQLNMLHRRSGLPRPSDSNAVSLVMRRIRKENVDAGERAKQALAFERTDFDQVRSLMENSDRCQDIRNLAFLGIAYNTLLRIAEIARIRVKDISRTDGGRMLIHIGRTKTLVSTAGVEKALSLGVTKLVERWISVSGVADDPNNYLFCRVRKNGVAAPSATSQLSTRALEGIFEATHRSGGSGSGSSGGSGTMEVQLQASGGGLVQAGGSLRLSCTASGRTGTIYSMAWFRQAPGKEREFLATVGWSSGITYYMDSVKGRFTISRDNAKNSAYLQMNSLKPEDTAVYYCTATRAYSVGYDYWGQGTQVTVSHVEEVQLQASGGGLVQAGGSLRLSCTASGRTGTIYSMAWFRQAPGKEREFLATVGWSSGITYYMDSVKGRFTISRDNAKNSAYLQMNSLKPEDTAVYYCTATRAYSVGYDYWGQGTQVTVSHPKKKRKV

gRNA induced mCherry knockdown efficiency, no CID domain [2]: < 80%
B2: CD375 PV1-RfxCas13d-N565-NLS-BGHpA (protein)
chain: MIEKKKSFAKGMGVKSTLVSGSKVYMTTFAEGSDARLEKIVEGDSIRSVNEGEAFSAEMADKNAGYKIGNAKFSHPKGYAVVANNPLYTGPVQQDMLGLKETLEKRYFGESADGNDNICIQVIHNILDIEKILAEYITNAAYAVNNISGLDKDIIGFGKFSTVYTYDEFKDPEHHRAAFNNNDKLINAIKAQYDEFDNFLDNPRLGYFGQAFFSKEGRNYIINYGNECYDILALLSGLRHWVVHNNEEESRISRTWLYNLDKNLDNEYISTLNYLYDRITNELTNSFSKNSAANVNYIAETLGINPAEFAEQYFRFSIMKEQKNLGFNITKLREVMLDRKDMSEIRKNHKVFDSIRTKVYTMMDFVIYRYYIEEDAKVAAANKSLPDNEKSLSEKDIFVINLRGSFNDDQKDALYYDEANRIWRKLENIMHNIKEFRGNKTREYKKKDAPRLPRILPAGRDVSAFSKLMYALTMFLDGKEINDLLTTLINKFDNIQSFLKVMPLIGVNAKFVEEYAFFKDSAKIADELRLIKSFARMGEPIADARRAMYIDAIRILGTNLSYDELKPKKKRKV

gRNA induced mCherry knockdown efficiency, no CID domain [3]: < 80%
B3: CD379 PV1-RfxCas13d-N655-NLS-BGHpA (protein)
chain: MIEKKKSFAKGMGVKSTLVSGSKVYMTTFAEGSDARLEKIVEGDSIRSVNEGEAFSAEMADKNAGYKIGNAKFSHPKGYAVVANNPLYTGPVQQDMLGLKETLEKRYFGESADGNDNICIQVIHNILDIEKILAEYITNAAYAVNNISGLDKDIIGFGKFSTVYTYDEFKDPEHHRAAFNNNDKLINAIKAQYDEFDNFLDNPRLGYFGQAFFSKEGRNYIINYGNECYDILALLSGLRHWVVHNNEEESRISRTWLYNLDKNLDNEYISTLNYLYDRITNELTNSFSKNSAANVNYIAETLGINPAEFAEQYFRFSIMKEQKNLGFNITKLREVMLDRKDMSEIRKNHKVFDSIRTKVYTMMDFVIYRYYIEEDAKVAAANKSLPDNEKSLSEKDIFVINLRGSFNDDQKDALYYDEANRIWRKLENIMHNIKEFRGNKTREYKKKDAPRLPRILPAGRDVSAFSKLMYALTMFLDGKEINDLLTTLINKFDNIQSFLKVMPLIGVNAKFVEEYAFFKDSAKIADELRLIKSFARMGEPIADARRAMYIDAIRILGTNLSYDELKALADTFSLDENGNKLKKGKHGMRNFIINNVISNKRFHYLIRYGDPAHLHEIAKNEAVVKFVLGRIADIQKKQGQNGKNQIDRYYETCIGKPKKKRKV
